According to PMC3585277, “The C-Terminal Region Mesd Peptide Mimics Full-Length Mesd and Acts as an Inhibitor of Wnt/β-Catenin Signaling in Cancer Cells” (PLoS ONE, 2013):

Experiments:
Wnt/β-catenin signaling [1] = assay: Super8XTOPFlash luciferase reporter assay, HS578T cells; format: cell-based, human; conditions: 24 h treatment
Method: (§1) Cells were plated into 24-well plates. After overnight culture, the cells were transiently transfected with the TOPFlash or Super8XTOPFlash luciferase construct, β-galactosidase-expressing vector, and pcDNA3.1C-Myc-hLRP5, pCS-Myc-hLRP6 or control vector. After 24 h incubation, cells were treated with Mesd, Mesd peptide, Rspo1 and Wnt3A CM. Cells were then lysed 24 h later and both luciferase and β-galactosidase activities were determined. The luciferase activity was normalized to the β-galactosidase activity.

PC-3 cells [2] = assay: Cell viability, Cell Titer Glo Assay, PC-3 cells; format: cell-based, human; conditions: Mesd 2 µM or hMesd (160–197) 2 µM with Adriamycin 0.5 µM, 2 days after pre-treatment
Method: (§2) Cell viability was measured in 96-well plates by the Cell Titer Glo Assay (Promega), which is a luminescent assay that is an indicator of live cells as a function of metabolic activity and ATP content.

Wnt/β-catenin signaling [3] = assay: TOPFlash luciferase reporter assay, LRP6-transfected HEK293 cells; format: cell-based, human; conditions: Wnt3A CM 5%, Rspo1 40 ng/ml, mMesd 2 µM, peptide at indicated concentrations, 24 h, normalized to β-galactosidase
Method: as §1

PC-3 cells [4] = conditions: cited from earlier work
Excerpt: (§3) Treatment of prostate cancer cells with Wnt3A CM or purified recombinant Wnt ...

PC-3 tumor = conditions: cited from earlier work
Excerpt: as §3

Wnt/β-catenin signaling [5] = conditions: cited from earlier work
Excerpt: as §3

Wnt/β-catenin signaling [6] = assay: TOPFlash luciferase reporter assay, LRP5-transfected HEK293 cells; format: cell-based, human; conditions: Wnt3A CM 5%, Rspo1 40 ng/ml, mMesd 2 µM, peptide at indicated concentrations, 24 h, normalized to β-galactosidase
Method: as §1

MDA-MB-231 tumor = conditions: cited from earlier work
Wnt/β-catenin signaling [7] = assay: Super8XTOPFlash luciferase reporter assay, PC-3 cells; format: cell-based, human; conditions: 24 h treatment
Method: as §1

HS578T cells [8] = assay: Cell viability, Cell Titer Glo Assay, HS578T cells; format: cell-based, human
Method: as §2

OPG expression = assay: Western blot of OPG expression in C2C12 cells; format: cell-based, mouse; conditions: 48 h, mMesd 0.5 µM
Method: (§4) Cells in 6-well plates were lysed in 0.5 ml of lysis buffer (phosphate-buffered saline containing 1% Triton X-100 and 1 mM PMSF) at 4°C for 10 min. Equal quantities of protein were subjected to SDS-PAGE under reducing conditions. Following transfer to immobilon-P transfer membrane, successive incubations with anti-HA, anti-Wnt10b, anti-β-catenin, anti-OPG, anti-phosphorylated-LRP6, anti-LRP6, anti-Axin2, anti-Cyclin D1 or anti-actin, and horseradish peroxidase-conjugated secondary antibody were carried out for 60–120 min at room temperature. The immunoreactive proteins were then detected using the ECL system. Films showing immunoreactive bands were scanned by Kodak Digital Science DC120 Zoom Digital Camera.

HS578T cells [9] = assay: Cell proliferation assay (trypan blue exclusion), HS578T cells; format: cell-based, human; conditions: DMEM 2% FBS, 10 days, mMesd 2 µM, hMesd (160–197) 4 µM, control peptide 4 µM, n = 3
Method: (§5) Cells were seeded into 6-well plates at a density of 10000 cells/well. RPMI-1640 or DMEM medium containing 2% FBS was used as assay media. After 16 h incubation, the cells were treated with Mesd or its peptide for 10 days. Media were changed every other day. At the end of the experiment, cells were harvested and counted using the trypan blue exclusion assay.

PC-3 cells [10] = assay: Cell proliferation assay (trypan blue exclusion), PC-3 cells; format: cell-based, human; conditions: PC-3, RPMI-1640 2% FBS, 10 days; mMesd 2 µM, hMesd (160–197) 4 µM, control peptide 4 µM; n = 3
Method: as §5

LRP6 phosphorylation = assay: Western blot of phosphorylated LRP6 in C2C12 cells; format: cell-based, mouse; conditions: C2C12, Wnt3A CM 5%, 6 h; mMesd 0.5 µM, peptide at indicated concentrations
Method: as §4

B1: Mesd protein: recombinant mouse Mesd protein, full-length; binds mature LRP5 and LRP6, universal antagonist of LRP5/6 modulators (protein)
chain: ADTPGEATPPPRKKKDIRDYNDADMARLLEQWEKDDDIEEGDLPEHKRPSAPIDFSKLDPGKPESILKMTKKGKTLMMFVTVSGNPTEKETEEITSLWQGSLFNANYDVQRFIVGSDRAIFMLRDGSYAWEIKDFLVSQDRCAEVTLEGQMYPGKGGGSKEKNKTKPEKAKKKEGDPKPRASKEDNRAGSRREDL
modifications: 125I (IODO-GEN method) on the radioligand; unlabeled when used as competitor
With B1 the “Wnt reporter luciferase activity induced by Wnt1” value (Wnt/β-catenin signaling [1]; HS578T transfected with Wnt1 plasmid) was “significantly repress”, the “Wnt reporter luciferase activity” value (Wnt/β-catenin signaling [1]; HS578T, endogenous signaling, indicated concentrations) was “significantly repressed” and the Adriamycin-induced cytotoxicity (PC-3 cells [2]) was “potentiate”. For the same molecule, the “TOPFlash activity induced by LRP6, LRP6 plus Wnt3A, LRP6 plus Rspo1” value (Wnt/β-catenin signaling [3]) was “blocked”, the “PC-3 cell proliferation in vitro” value (PC-3 cells [4]) was “suppressed” and the “PC-3 tumor growth in vivo” value (PC-3 tumor) was “suppressed”. The “Wnt/β-catenin signaling in prostate cancer PC-3 cells” value (Wnt/β-catenin signaling [5]) was “markedly inhibited”, the “TOPFlash activity induced by LRP5, LRP5 plus Wnt3A, LRP5 plus Rspo1” value (Wnt/β-catenin signaling [6]) was “blocked” and the MDA-MB-231 tumor growth (MDA-MB-231 tumor) was “suppressed”. The “Wnt reporter luciferase activity” value (Wnt/β-catenin signaling [7]; PC-3, endogenous signaling, indicated concentrations) was “significantly repressed”, the “Wnt reporter luciferase activity induced by Wnt1” value (Wnt/β-catenin signaling [7]; PC-3 transfected with Wnt1 plasmid) was “significantly repress” and the Adriamycin-induced cytotoxicity (HS578T cells [8]; Mesd 2 µM or hMesd (160–197) 2 µM with Adriamycin 0.5 µM, 2 days after pre-treatment) was “potentiate”. The “inhibition of cell viability” value (HS578T cells [8]; single agent: Mesd protein 2 µM or Adriamycin 0.5 µM, Mesd 4 days pre-treatment, then 2 days, n = 4) was 25%, the “OPG expression induced by Rspo1 plus Wnt3A” value (OPG expression; C2C12, Rspo1 20 ng/ml, Wnt3A CM 2%, mMesd (155–191) 2 µM) was “repressed” and the “Wnt3A-induced OPG expression” value (OPG expression; C2C12, Wnt3A CM 5%, peptide at indicated concentrations) was “able to suppress”. The cell proliferation (HS578T cells [9]) was “displayed inhibitory effect”, the cell proliferation (PC-3 cells [10]) was “displayed inhibitory effect” and the “Wnt3A-induced endogenous LRP6 phosphorylation” value (LRP6 phosphorylation) was “able to suppress”.
